Experimental data taken from patent US20210196842A1, “SITE-SPECIFIC RADIOFLUORINATION OF PEPTIDES WITH 8-[18F]-FLUOROOCTANOIC ACID CATALYZED BY LIPOIC ACID LIGASE” (THE REGENTS OF THE UNIVERSITY OF CALIFORNIA, priority 2015, published 2021).
Values belong to the molecule of their own block, whether it stands above or below them.

How the values were obtained:
[1] = target: T1, LAP peptide (Ac-GFEIDKVWYDLDA-OH)
T1 chain: GFEIDKVWYDLDA

[2] = target: T2, scrambled LAP peptide (Ac-EFDDWKYADVGLI)
T2 chain: EFDDWKYADVGLI

[3] = target: human urokinase plasminogen activator receptor (uPAR), biotinylated (human) (UniProt Q03405); assay: BLI (Octet RED384), biotinylated human uPAR on streptavidin biosensors, Fab in solution, 1:1 model
Chain of human urokinase plasminogen activator receptor (uPAR), biotinylated (human) (Q03405 23-303 limits assumed): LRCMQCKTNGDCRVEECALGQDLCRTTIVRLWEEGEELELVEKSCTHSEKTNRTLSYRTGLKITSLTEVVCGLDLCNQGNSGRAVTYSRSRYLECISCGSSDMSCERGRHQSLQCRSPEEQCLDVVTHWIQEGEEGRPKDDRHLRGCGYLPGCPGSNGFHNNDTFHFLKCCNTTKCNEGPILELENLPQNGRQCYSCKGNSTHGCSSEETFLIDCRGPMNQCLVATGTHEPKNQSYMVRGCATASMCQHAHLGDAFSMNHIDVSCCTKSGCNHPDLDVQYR

[4] = target: T3, human urokinase plasminogen activator receptor (uPAR), biotinylated (human, UniProt Q03405 23-303); assay: as above
T3 construct: also called human uPAR; biotinylated human uPAR

[5] = target: human uPAR (Homo sapiens, UniProt Q03405); assay: Binding of 2G10 Fabs to uPAR measured using Octet instrument
Chain of human uPAR (Q03405 23-305): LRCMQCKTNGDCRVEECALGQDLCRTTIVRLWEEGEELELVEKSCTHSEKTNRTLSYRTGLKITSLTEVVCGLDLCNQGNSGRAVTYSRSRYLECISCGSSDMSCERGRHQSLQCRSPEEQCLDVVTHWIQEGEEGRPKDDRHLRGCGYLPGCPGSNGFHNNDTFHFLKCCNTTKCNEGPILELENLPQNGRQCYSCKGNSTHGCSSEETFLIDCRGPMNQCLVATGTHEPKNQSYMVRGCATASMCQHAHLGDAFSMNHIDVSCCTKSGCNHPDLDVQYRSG
Procedure: Measurement of 2G10-Fab-FA-LAP Affinity for uPAR: Stocks solutions were diluted to the following concentrations in 100 μL PBS: 2G10-Fab-LAP (10 μM), Lp1AΔHis (50 μM), FA (750 μM), ATP (3 mM), Mg(OAc)2 (5 mM). The resulting solution was incubated at 30° C. for 15 h and then quenched with 100 μL. 360 mM EDTA. Kinetic constants this sample, along with 2G10 and 2G10-Fab-LAP, were determined using an Octet RED384 instrument (ForteBio). Four concentrations of each Fab (500 nM, 250 nM, 100 nM and 50 nM) were tested for binding to the biotinylated antigen (human uPAR) immobilized on ForteBio streptavidin SA biosensors. All measurements were performed at room temperature in 384-well microplates and the running buffer was PBS with 0.1% (w/v) bovine serum albumin (BSA) and 0.02% (v/v) Tween 20. Biotinylated human uPAR was loaded for 180 s from a solution of 150 nM, baseline was equilibrated for 60 s, and then the Fabs were associated for 120 s followed by 300 s disassociation. Between each Fab sample, the biosensor surfaces were regenerated three times by exposing them to 10 mM glycine, pH 1.5 for 5 s followed by PBS for 5 s. Data were analyzed using a 1:1 interaction model on the ForteBio data analysis software 8.2.

B1: LplA-His6 (E. coli lipoic acid ligase) (protein)
chain: MSTLRLLISDSYDPWFNLAVEECIFRQMPATQRVLFLWRNADTVVIGRAQNPWKECNTRRMEEDNVRLARRSSGGGAVFHDLGNTCFTFMAGKPEYDKTISTSIVLNALNALGVSAEASGRNDLVVKTTEGDRKVSGSAYRETKDRGFHHGTLLLNADLSRLANYLNPDKKKLAAKGITSVRSRVTNLTELLPEITHEQVCEAIREAFFAHYGERVEAEIISPDKTPDLPNFAETFARQSSWEWNFGQAPAFSHLLDERFTWGGVELHFDVEKGHITRAQVFTDSLNPAPLEALAGRLQGCLYRADMLQQECEALLVDFPEQEKELRELSTWIAGAVR
Yield/% (radio-TLC conjugation yield of [18F]-FA) [1]: 91% | conversion of LAP to [19F]-FA-LAP, RP-HPLC [1]: complete at 30 minutes | Yield/% (radio-TLC conjugation yield of [18F]-FA) [2]: 0% | conjugation of FA to peptide, RP-HPLC [2]: No productive reaction was observed after 60 minutes

Kd [3]: 31 nM
B2: 2G10-Fab-LAP (Fab, V domains shown)
VH: QVQLQQSGPGLVKPSQTLSLTCAISGDSVSSNSAAWNWIRQSPSRGLEWLGRTYYRSKWYNDYAVSVKSRIIINPDTSKNQFSLQLNSVTPEDTAVYYCARDPGGPLDDSFDIWGQGTMVTVSS
VL: DVVMTQSPLSLPVTPGEPASISCRSSQSLLRSNGYNYLDWYLQKPGQSPQLLIYLGSIRASGVPDRFSGSGSGTDFTLRISRVEAEDVGVYYCMQALQTPFTFGQGTKLEIKR

Kd [4]: 38 nM
B3: 2G10-Fab (Fab, V domains shown)
VH: B2 VH
VL: B2 VL

Kd ([5]; Octet RED384, biotinylated human uPAR on streptavidin biosensors, room temperature, 1:1 interaction model, read-out: KD (nM), dissociation constants for 2G10-Fabs with uPAR): 31 ± 2.2 nM
B4: 2G10-Fab-LAP: 2G10 Fab with the LAP peptide sequence inserted at the C-terminus of the heavy chain (antibody)
heavy: QVQLQQSGPGLVKPSQTLSLTCAISGDSVSSNSAAWNWIRQSPSRGLEWLGRTYYRSKWYNDYAVSVKSRIIINPDTSKNQFSLQLNSVTPEDTAVYYCARDPGGPLDDSFDIWGQGTMVTVSSASTKGPSVFPLAPSSKSTSGGTAALGCLVKDYFPEPVTVSWNSGALTSGVHTFPAVLQSSGLYSLSSVVTVPSSSLGTQTYICNVNHKPSNTKVDKKVEPKSCAAHHHHHHAAGFEIDKVWYDLDA
light: DVVMTQSPLSLPVTPGEPASISCRSSQSLLRSNGYNYLDWYLQKPGQSPQLLIYLGSIRASGVPDRFSGSGSGTDFTLRISRVEAEDVGVYYCMQALQTPFTFGQGTKLEIKRTVAAPSVFIFPPSDEQLKSGTASVVCLLNNFYPREAKVQWKVDNALQSGNSQESVTEQDSKDSTYSLSSTLTLSKADYEKHKVYACEVTHQGLSSPVTKSFNRGEC
differences in binding affinity for uPAR between the Fabs ([5]; Octet, after bioconjugation with excess [19F]-FA): No significant differences in binding affinity
